Assays:
STZ treated rats = assay: Intraperitoneal glucose tolerance test (IPGTT); assay type: in vivo, rat
Experimental: The STZ treated (n=12) and normal rats (n=4) were kept on fasting for 12 hrs. Blood glucose levels were monitored as described above. For glucose tolerance test was done. […] Blood glucose levels were monitored at 0, 30, 90, 150, 270 and 330 min after treatment. Serum was isolated for various time points and a graph was plotted between blood glucose level and time. FIG. 12 provides blood glucose profile of Intraperitoneal Glucose Tolerance Test (IPGTT).

MCF 7 cells = assay: MTT cell proliferation assay; assay type: cell-based; settings: 3 days after treatment
Experimental: Cells were plated in 24-well plates with 10,000 cells/well in regular DMEM media containing 10% FBS. All treatments were done in triplicates. Growth was measured 3 days after treatment. Growth was assayed by the MTT assay. A total of 50 μl of 5 mg/ml MTT solution in PBS was added to each well. After incubation for 4 h at 37° C., formazan crystals were lysed with 500 μl of solubilization solution (20% SDS, 50% DMSO). Absorbance was measured with a plate reader at 570 nm using a 670-nm differential filter.

[1] = Serum insulin quantification by ELISA; settings: in 30 min
Experimental: Serum was isolated from the blood samples collected and stored at −20° C. till further analysis.

[2] = tested on: fat-fed/streptozotocin-diabetic rats; assay: Type II diabetes model, fat-fed/streptozotocin-diabetic rats; assay type: in vivo, rat
Experimental: Male Wistar rats, 7 weeks of age, and weighing approximately 200 g, were used for all studies. […] After 2 weeks on either diet, animals (with the exception of non-injected controls) after an overnight fast were injected with STZ (50 mg/kg) into the tail vein via a temporary indwelling 24-gauge catheter. Animals had free access to food and water after the STZ injection, and both STZ-injected and non-injected animals were continued on their original diets (chow or fat) for the duration of the study.

[3] = tested on: STZ-induced diabetic rats; assay: Clinical parameters for the evaluation of toxicity of SIA II; assay type: in vivo, rat
[4] = tested on: STZ-induced diabetic rats; assay: Blood glucose control in streptozotocin-induced diabetic rats; assay type: in vivo, rat
Experimental: Nine weeks old Male Wistar rats (Rattus norvegicus albinus, Rodentia mammalia) weighing 210±10 g were used. Rats were housed in commercially available polypropylene cages and maintained under controlled temperature conditions on a 12 h light-dark cycle and allowed to access food and water ad libitum.
Male Wistar Rats weighing 250-300 g were divided into four groups and blood glucose estimation was done using Roche Accu Check glucose strips. Rats were kept on fasting for 48 hours. 50 mg/kg b.wt of Streptozotocin prepared freshly in citrate buffer (pH 4.5) was administered intraperitoneally to 10-20 rats. Food was provided immediately and blood glucose levels were checked after three days. The animals were grouped according to their blood glucose level (group I: 250-350 mg/dl, group II: 350-450 mg/dl and group III: >450 mg/dL).
A group of 5 normal rats injected 100 μl of PBS, served as the non-diabetic control. Body weight and blood glucose levels, both pre-prandial after 8-10 hr fasting and post-prandial were checked initially daily and then with decreasing frequency.

[5] = tested on: insulin signaling cascade (PI3K, Akt, GSK3β, ERK1/2) in rat adipocytes; assay: Western blot of insulin signaling cascade in cultured adipocytes; assay type: cell-based; settings: compared to control
Experimental: Rat adipocytes were isolated and cultured according to the method described by Björntorp et al. (Björntorp, P., Karlsson, M., Pettersson, P. & Sypniewska, G. Differentiation and function of rat adipocyte precursor cells in primary culture. J. Lipid Res. 21, 714-723 (1987)). Male Wistar rats fed freely were sacrificed and epididymal fat tissue was dissected and collected in reagent A (HBSS, 100 U/ml penicillin, 100 μg/ml streptomycin and […] gentamycin). The tissue was washed properly in HBSS. Following this the tissue was cut and minced finely and transferred to a falcon, centrifuged at 200 g for 2 min. The layer of transparent oil was removed and the adipocyte cell layer (thick and dense) was added to three times the volume of reagent B (reagent A containing 0.1% BSA and 1 mg/ml Collagenase) in a flask. The flask was incubated at 37° C. for 60 min with continuous slow shaking. The reaction was stopped by addition of DMEM complete media (with HEPES 15 mM, glc, 0.1% BSA, 50 nM adenosine and 1% fetal bovine serum) three times the volume and incubated at room temperature for 5 min. […]
After incubation, the cells were collected in a falcon tube and centrifuged at 200 g for 10 min. […] Adipocytes treated with (a) PBS, insulin, SIA-II, insulin released from SIA-II, (b) serum as indicated, and analysed for insulin signaling.

[6] = tested on: STZ-induced diabetic rats; assay: Clinical parameters for the evaluation of toxicity of SIA II; assay type: in vivo, rat; settings: end of three month study
Excerpt: Serum isolated from blood samples collected at the end of the three month study and subjected to various tests indicated in the Table. Results are mean±s.d. of three different experiments having n=4 animals in each group.

Male wistar rats = assay: Hyperglycemic clamp after treatment with SIA II; assay type: in vivo, rat; settings: one week, one month and three month
Experimental: Male wistar rats were anesthetized (Isoflurane 2%) and a carotid and jugular catheter installed to allow blood withdrawal and glucose injections (20% glucose solution) to clamp blood glucose level at 600 mg/dL. Following a 12 hours fasting period, glucose was infused in all groups to make them hyperglycemic. This was followed by blood withdrawal at indicated time intervals, for blood glucose measurements and the rate of glucose infusion to retain them hyperglycemic were calculated. This procedure was repeated after one and three months of SIA II administration (FIG. 16 a-c).

[7] = insulin: single dose of 4 IU/kg daily, SIA: single injection 200 μg

Substance: Insulin: free, non-supramolecularly organized insulin; bovine insulin 4 U/kg intraperitoneally
- time for elevated blood glucose to return to pre challenged levels (STZ treated rats; after glucose infusion 3 g/kg IP): ≤ 1.5 h
- onset of effect in IPGTT (STZ treated rats; severe hyperglycemia): ≤ 30 min
- proliferation of MCF 7 cells (MCF 7 cells): does not cause proliferation of cells
- serum bovine insulin in IPGTT [1]: ~0.9 ng/mL
- B W ([2]; 1 week): 261
- BGL ([2]; 1 week): 420 mg/dL
- FFA ([2]; 1 week): 1.9 ± 0.08 mmol/L
- Rat Insulin ([2]; 1 week): 37.09 ± 4.7 μU/ml
- TG ([2]; 1 week): 0.77 ± 0.05 mmol/L
- B W ([2]; 2 week): 263
- BGL ([2]; 2 week): 401 mg/dL
- FFA ([2]; 2 week): 2.1 ± 0.08 mmol/L
- Rat Insulin ([2]; 2 week): 37.09 ± 4.7 μU/ml
- TG ([2]; 2 week): 0.75 ± 0.05 mmol/L
- B W ([2]; 3 week): 269
- BGL ([2]; 3 week): 390 mg/dL
- FFA ([2]; 3 week): 1.8 ± 0.08 mmol/L
- Rat Insulin ([2]; 3 week): 37.09 ± 4.7 μU/ml
- TG ([2]; 3 week): 0.73 ± 0.05 mmol/L
- BGL ([2]; 4 week): 396 mg/dL
- FFA ([2]; 4 week): 2.1 ± 0.08 mmol/L
- Rat Insulin ([2]; 4 week): 37.09 ± 4.7 μU/ml
- TG ([2]; 4 week): 0.76 ± 0.05 mmol/L
- increase of TAGs and FFA levels in serum ([2]; serum): up to 1.5 fold
- Adipose Tissue ([3]; Single daily Insulin Injection, end of three month study): Decreased
- cataract formation ([3]; diabetic rats): Development of cataract
- blood glucose levels ([4]; insulin intraperitoneally everyday): 300 ± 100 mg/dL
- fasting blood glucose [4, 7]: 300 to 400 mg/dL
- non-fasting blood glucose [4, 7]: 350 to 450 mg/dL
- duration of action ([4]; standard insulin injection): 6 to 10 h
- activation of ERK 1/2 [5]: significant activation
- phosphorylation of GSK3β [5]: increased several fold
- Alkaline Phosphatase ([6]; Single daily Insulin Injection): 777.8 ± 89.4 U/L
- Bilirubin (Direct) ([6]; Single daily Insulin Injection): 0.36 ± 0.08 mg/dL
- Bilirubin (Total) ([6]; Single daily Insulin Injection): 0.40 ± 0.08 mg/dL
- Chloride ([6]; Single daily Insulin Injection): 165 ± 23 mEq/L
- Phosphorous ([6]; Single daily Insulin Injection): 6.5 ± 1.3 mEq/L
- SGOT ([6]; Single daily Insulin Injection): 355 ± 83 U/L
- SGPT ([6]; Single daily Insulin Injection): 86 ± 36 U/L
- Serum A/G ratio ([6]; Single daily Insulin Injection): 0.595
- Serum Albumin ([6]; Single daily Insulin Injection): 2.5 ± 0.21 g/dL
- Serum Creatinine ([6]; Single daily Insulin Injection): 1.01 ± 0.30 mg/dL
- Serum Globulin ([6]; Single daily Insulin Injection): 4.2 ± 0.18 g/dL
- Serum total proteins ([6]; Single daily Insulin Injection): 6.70 ± 0.21 g/dL
- Sodium ([6]; Single daily Insulin Injection): 200 ± 26 mEq/L
- Urea ([6]; Single daily Insulin Injection): 58.3 ± 9.2 mg/dL
- Uric Acid ([6]; Single daily Insulin Injection): 3.0 ± 0.81
- Adipose Tissue ([6]; Twice daily Insulin Injection): Decreased
- Alkaline Phosphatase ([6]; Twice daily Insulin Injection): 489 ± 65 U/L
- Bilirubin (Direct) ([6]; Twice daily Insulin Injection): 0.25 ± 0.06 mg/dL
- Bilirubin (Total) ([6]; Twice daily Insulin Injection): 0.35 ± 0.1 mg/dL
- Chloride ([6]; Twice daily Insulin Injection): 119 ± 26 mEq/L
- Phosphorous ([6]; Twice daily Insulin Injection): 6.2 ± 0.95 mEq/L
- SGOT ([6]; Twice daily Insulin Injection): 300 ± 56 U/L
- SGPT ([6]; Twice daily Insulin Injection): 85 ± 15 U/L
- Serum A/G ratio ([6]; Twice daily Insulin Injection): 0.955
- Serum Albumin ([6]; Twice daily Insulin Injection): 3.2 ± 0.19 g/dL
- Serum Creatinine ([6]; Twice daily Insulin Injection): 0.88 ± 0.21 mg/dL
- Serum Globulin ([6]; Twice daily Insulin Injection): 3.35 ± 0.15 g/dL
- Serum total proteins ([6]; Twice daily Insulin Injection): 5.55 ± 0.25 g/dL
- Sodium ([6]; Twice daily Insulin Injection): 198 ± 45.5 mEq/L
- Urea ([6]; Twice daily Insulin Injection): 60.1 ± 12.36 mg/dL
- Uric Acid ([6]; Twice daily Insulin Injection): 3.1 ± 0.56
- rate of glucose infused for maintaining hyperglycemic state (Male wistar rats): decreases over time

Source: patent US20110034385A1, “Compositions Useful for the Treatment of Diabetes and Other Chronic Disorder” (NATIONAL INSTITUTE OF IMMUNOLOGY, priority 2008, published 2011)
